Data reported in patent publication US20250154287A1.

Biological target: CD19 on B cells and plasma cells in PBMCs (human) (UniProt P15391)
Test: cell-based or functional assay

Sequence of CD19 on B cells and plasma cells in PBMCs (human) (P15391 20-556): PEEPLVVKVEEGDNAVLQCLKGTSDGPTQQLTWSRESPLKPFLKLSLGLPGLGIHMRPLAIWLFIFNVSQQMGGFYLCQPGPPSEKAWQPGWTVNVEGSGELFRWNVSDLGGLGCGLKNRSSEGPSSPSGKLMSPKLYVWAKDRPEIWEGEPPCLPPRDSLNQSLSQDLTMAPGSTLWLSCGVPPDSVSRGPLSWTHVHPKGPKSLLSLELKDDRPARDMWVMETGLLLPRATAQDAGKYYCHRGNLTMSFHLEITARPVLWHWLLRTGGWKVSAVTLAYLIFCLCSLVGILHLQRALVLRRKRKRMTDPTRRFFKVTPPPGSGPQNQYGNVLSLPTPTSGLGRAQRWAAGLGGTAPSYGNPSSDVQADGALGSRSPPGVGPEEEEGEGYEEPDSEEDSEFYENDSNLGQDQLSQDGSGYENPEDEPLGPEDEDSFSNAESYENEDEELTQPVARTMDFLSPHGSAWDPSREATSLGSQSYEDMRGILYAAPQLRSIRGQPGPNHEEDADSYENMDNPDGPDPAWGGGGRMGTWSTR

EC50 (nM), reduction in secreted IgA in human PBMC supernatants: 0.0368 nM | reduction of secreted IgA in PBMC supernatants (IgA ELISA): 57%
Substance: CD19-CD3 scFv (InvivoGen, Cat number Bimab-cd19cd3-01)
EC50 (nM), cytotoxicity against IgA^+ CD20^+ B cells by flow cytometry: 0.00325 nM | Top (MFI) as printed, cytotoxicity against IgA^+ CD20^+ B cells by flow cytometry: 92.8
